Article PMC7481404

Target: PARK2 (UniProt O60260)
Assay: co-IP of Flag-PARK2 and Myc-BCL-2
Conditions: reference: wild type Myc-BCL-2; sites S70

BCL-2 (from UniProt P10415) S70A
binding against the reference: lost
